Assay results: publication PMC6502667 (Journal of structural biology, 2019)
Read-outs that look alike come from different tables or passages of the source.

Assays:
[1] = target: human plasminogen (human) (UniProt P00747); assay: SPR
[2] = target: human plasminogen (human) (UniProt P00747); assay: SPR; remark: listed apart in the source
[3] = target: human plasminogen (human) (UniProt P00747); assay: SPR; remark: listed apart in the source
[4] = target: human plasminogen (human) (UniProt P00747); assay: SPR; remark: listed apart in the source
[5] = target: human plasminogen (human) (UniProt P00747); assay: SPR; remark: listed apart in the source
[6] = target: PAM_(NS88.2), PAM of GAS isolate NS88.2 (emm98.1), residues 42-385 (Streptococcus pyogenes (GAS) isolate NS88.2 (emm98.1)) (UniProt P49054); assay: AUC
[7] = target: PAM_(NS88.2), PAM of GAS isolate NS88.2 (emm98.1), residues 42-385 (Streptococcus pyogenes (GAS) isolate NS88.2 (emm98.1)) (UniProt P49054); assay: AUC; remark: listed apart in the source
[8] = target: PAM_(NS223), PAM of GAS isolate NS223 (emm91), residues 42-399 (Streptococcus pyogenes (GAS) isolate NS223 (emm91)); assay: AUC
[9] = target: PAM_(NS223), PAM of GAS isolate NS223 (emm91), residues 42-399 (Streptococcus pyogenes (GAS) isolate NS223 (emm91)); assay: AUC; remark: listed apart in the source
[10] = target: PAM_(NS455), PAM of GAS isolate NS455 (emm52), residues 42-401 (Streptococcus pyogenes (GAS) isolate NS455 (emm52)); assay: AUC
[11] = target: PAM_(NS455), PAM of GAS isolate NS455 (emm52), residues 42-401 (Streptococcus pyogenes (GAS) isolate NS455 (emm52)); assay: AUC; remark: listed apart in the source
[12] = target: PAM_(SS1448), PAM of GAS isolate SS1448 (emm86.2), residues 42-375 (Streptococcus pyogenes (GAS) isolate SS1448 (emm86.2)) (UniProt P49054); assay: AUC
[13] = target: PAM_(SS1448), PAM of GAS isolate SS1448 (emm86.2), residues 42-375 (Streptococcus pyogenes (GAS) isolate SS1448 (emm86.2)) (UniProt P49054); assay: AUC; remark: listed apart in the source
[14] = target: PAM_(SS1572), PAM of GAS isolate SS1572 (emm223), residues 42-399 (Streptococcus pyogenes (GAS) isolate SS1572 (emm223)); assay: AUC
[15] = target: PAM_(SS1572), PAM of GAS isolate SS1572 (emm223), residues 42-399 (Streptococcus pyogenes (GAS) isolate SS1572 (emm223)); assay: AUC; remark: listed apart in the source
[16] = target: PAM_(SS1574), PAM of GAS isolate SS1574 (emm224), residues 42-360 (Streptococcus pyogenes (GAS) isolate SS1574 (emm224)) (UniProt P49054); assay: AUC
[17] = target: PAM_(SS1574), PAM of GAS isolate SS1574 (emm224), residues 42-360 (Streptococcus pyogenes (GAS) isolate SS1574 (emm224)) (UniProt P49054); assay: AUC; remark: listed apart in the source
human plasminogen [18] = target: T1, human plasminogen (human, UniProt P00747 20-810); assay: SPR
T1 sequence (P00747 20-810): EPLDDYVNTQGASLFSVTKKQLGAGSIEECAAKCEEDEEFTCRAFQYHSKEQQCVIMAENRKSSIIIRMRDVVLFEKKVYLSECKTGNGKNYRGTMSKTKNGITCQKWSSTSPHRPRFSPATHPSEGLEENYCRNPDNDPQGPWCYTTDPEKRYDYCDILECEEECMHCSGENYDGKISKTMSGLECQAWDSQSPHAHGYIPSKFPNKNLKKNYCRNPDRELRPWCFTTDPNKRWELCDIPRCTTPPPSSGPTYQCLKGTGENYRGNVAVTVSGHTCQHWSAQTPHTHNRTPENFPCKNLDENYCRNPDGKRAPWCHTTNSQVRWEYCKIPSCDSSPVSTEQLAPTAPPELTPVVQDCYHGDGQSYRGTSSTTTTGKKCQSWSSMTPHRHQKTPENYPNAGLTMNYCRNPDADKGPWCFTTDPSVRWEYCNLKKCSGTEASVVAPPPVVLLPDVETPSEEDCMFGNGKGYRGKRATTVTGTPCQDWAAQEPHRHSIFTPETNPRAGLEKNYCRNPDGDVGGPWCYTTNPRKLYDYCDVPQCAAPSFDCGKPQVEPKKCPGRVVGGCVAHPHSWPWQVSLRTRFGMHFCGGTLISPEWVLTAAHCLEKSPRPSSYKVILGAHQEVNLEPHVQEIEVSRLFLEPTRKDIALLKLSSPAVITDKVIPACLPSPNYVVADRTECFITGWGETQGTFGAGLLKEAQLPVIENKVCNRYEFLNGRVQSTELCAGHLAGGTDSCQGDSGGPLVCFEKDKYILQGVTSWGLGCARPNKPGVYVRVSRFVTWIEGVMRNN

human plasminogen [19] = target: T1, human plasminogen; assay: SPR; remark: listed apart in the source
human plasminogen [20] = target: T1, human plasminogen; assay: SPR; remark: listed apart in the source
human plasminogen [21] = target: T1, human plasminogen; assay: SPR; remark: listed apart in the source
human plasminogen [22] = target: T1, human plasminogen; assay: SPR; remark: listed apart in the source

human plasminogen (human), sequence (P00747 20-810): as above

Molecule “AGL55_(NS88.2), peptide of PAM_(NS88.2) residues 95-149 (from UniProt P49054 95-149)” has a Kd [1] of 160 nM, a Kd [2] of 350 nM and a Kd [3] of 630 nM. It also gave a Kd [4] of 830 nM and a Kd [5] of 7.1 µM.

“KTI55_(SS1448), peptide of PAM_(SS1448) residues 85-139 (from UniProt P49054 85-139)” showed a Kd [1] of 360 nM, a Kd [2] of 540 nM and a Kd [3] of 2100 nM. For the same molecule, the Kd [4] was 1500 nM and the Kd [5] was 27 µM.

With “PAM_(AP53), plasminogen-binding group A streptococcal M-protein of GAS isolate AP53 (emm53), residues 42-392 (natural protein)” the Kd [1] was 21 nM, the koff [1] was 0.0043 s⁻¹ and the kon [1] was 210000 M⁻¹ s⁻¹.

Molecule “PAM_(NS88.2), PAM of GAS isolate NS88.2 (emm98.1), residues 42-385 (from UniProt P49054 42-385) (natural protein)” has a Kd [1] of 5700 nM, a % dimer [6] of 91.4% and a % dimer [7] of 55.5%.

“PAM_(NS223), PAM of GAS isolate NS223 (emm91), residues 42-399 (natural protein)” showed a koff [1] of 0.0056 s⁻¹, a % dimer [8] of 94.5% and a % dimer [9] of 33.7%.

For “PAM_(NS455), PAM of GAS isolate NS455 (emm52), residues 42-401 (natural protein)”, the Kd [1] was 6 nM, the koff [1] was 0.0014 s⁻¹ and the kon [1] was 340000 M⁻¹ s⁻¹. The % dimer [10] was 86.8% and the % dimer [11] was 20.4%.

For “PAM_(SS1448), PAM of GAS isolate SS1448 (emm86.2), residues 42-375 (from UniProt P49054 42-375) (natural protein)”, the Kd [1] was 7000 nM, the % dimer [12] was 86.7% and the % dimer [13] was 56.4%.

With “PAM_(SS1572), PAM of GAS isolate SS1572 (emm223), residues 42-399 (natural protein)” the Kd [1] was 40 nM, the koff [1] was 0.0055 s⁻¹ and the kon [1] was 170000 M⁻¹ s⁻¹. The % dimer [14] was 95% and the % dimer [15] was 75.3%.

“PAM_(SS1574), PAM of GAS isolate SS1574 (emm224), residues 42-360 (from UniProt P49054 42-360) (natural protein)” showed a Kd [1] of 14 nM, a koff [1] of 0.0075 s⁻¹ and a kon [1] of 562000 M⁻¹ s⁻¹. For the same molecule, the % dimer [16] was 100% and the % dimer [17] was 33.5%.

B1: VEK75_(AP53), peptide of PAM_(AP53) residues 97-171 (peptide)
chain: VEKLTADAELQRLKNERHEEAELERLKSERHDHDKKEAERKALEDKLADKQEHLNGALRYINEKEAEAKEKEAEQ
modifications: Paper number minus 12 gives the entry number. N-terminal GS left by thrombin cleavage is omitted
B1 showed a Kd (human plasminogen [18]) of 0.7 nM, a Kd (human plasminogen [19]) of 15 nM and a Kd (human plasminogen [20]) of 45 nM.

B2: PAM_(AP53_medium), truncated PAM_(AP53), residues 42-207 (HVR-a1a2-B-c1) (domain or fragment)
chain: NRADDARNEVLRGNLVRAELWYRQIQENDQLKLENKGLKTDLREKEEELQGLKDDVEKLTADAELQRLKNERHEEAELERLKSERHDHDKKEAERKALEDKLADKQEHLNGALRYINEKEAEAKEKEAEQKKLKEEKQISDASRQGLRRDLDASREAKKQVEKDLA
modifications: Paper number minus 12 gives the entry number. His6 left out. About 11% dimer at 25 C
Molecule B2 has a Kd (human plasminogen [21]) of 2.4 nM, a koff (human plasminogen [21]) of 0.00054 s⁻¹ and a kon (human plasminogen [21]) of 230000 M⁻¹ s⁻¹. For the same molecule, the Kd (human plasminogen [22]) was 16 nM, the koff (human plasminogen [22]) was 0.0103 s⁻¹ and the kon (human plasminogen [22]) was 650000 M⁻¹ s⁻¹.

B3: PAM_(AP53_long), truncated PAM_(AP53), residues 42-338 (HVR-a1a2-B-c1c2c3-D) (domain or fragment)
chain: NRADDARNEVLRGNLVRAELWYRQIQENDQLKLENKGLKTDLREKEEELQGLKDDVEKLTADAELQRLKNERHEEAELERLKSERHDHDKKEAERKALEDKLADKQEHLNGALRYINEKEAEAKEKEAEQKKLKEEKQISDASRQGLRRDLDASREAKKQVEKDLANLTAELDKVKEEKQISDASRQGLRRDLDASREAKKQVEKGLANLTAELDKVKEEKQISDASRQGLRRDLDASREAKKQVEKALEEANSKLAALEKLNKELEESKKLTEKEKAELQAKLEAEAKALKEQLAK
modifications: Paper number minus 12 gives the entry number. His6 left out. Coiled-coil dimer (87% at 25 C)
With B3 the Kd (human plasminogen [21]) was 2 nM, the koff (human plasminogen [21]) was 0.00013 s⁻¹ and the kon (human plasminogen [21]) was 90000 M⁻¹ s⁻¹. It also gave a Kd (human plasminogen [22]) of 37 nM, a koff (human plasminogen [22]) of 0.0043 s⁻¹ and a kon (human plasminogen [22]) of 120000 M⁻¹ s⁻¹.
